# Source: US9669247B2 (priority 2011, dated 2017)
# Tests used:
# [1] = pH 7
# [2] = pH 7; remark: listed apart in the source
molecule,measurement,setting,value
"TsmE (protein, Methylophilus sp. S113; Thiefensulfuron Hydrolase TSME) METDKKTGTSRRSFVKAAGTGAIGIATLPLSTATAFAETDNVELAQSKRKVVLAEQGSFYIGGRTVTGPGKFDPSKPVIPYSNEGATFYINQMYVNFQAPVRPRGLPLVFWHGGGLTGHIWESTPDGRPGFQTLFVQDRHTVYTIDQPGRGRGNIPTFNGPFGQLEEESIVNTVTGNSSKEGAWVRDRLGPAPGQFFENSQFPRGYEDNYFKEMGFSPSISSDEIVDAVVKLVTHIGPCVLVTHSASGVLGMRVATHAKNVRGIVAYEPATSIFPKGKVPEIPPLADKKSQIFPPFEIQESYFKKLAKIPIQFVFGDNIPKNPKSAYWFLDWWRVTRYAHSLSLEAINKLGGQASLLDLPTAGLRGNTHFPFTDRNNVQVASLLSDFLGKHGLDQNES",specific enzyme activity of TsmE to thifensulfuron,[1],67 U/mg protein
same,specific enzyme activity of TsmE to haloxyfop-R-methyl,[2],55 U/mg protein
